Experimental findings from US20230080534A1 (SHANGHAI BIOTROY BIOTECHNIQUE, published 2023) are described below.

Assay [1] has as its target T1, human SEMG2 full-length protein (human, UniProt Q02383 24-582, limits assumed).
T1 construct: also called SEMG2 protein; semenogelin 2
T1 sequence: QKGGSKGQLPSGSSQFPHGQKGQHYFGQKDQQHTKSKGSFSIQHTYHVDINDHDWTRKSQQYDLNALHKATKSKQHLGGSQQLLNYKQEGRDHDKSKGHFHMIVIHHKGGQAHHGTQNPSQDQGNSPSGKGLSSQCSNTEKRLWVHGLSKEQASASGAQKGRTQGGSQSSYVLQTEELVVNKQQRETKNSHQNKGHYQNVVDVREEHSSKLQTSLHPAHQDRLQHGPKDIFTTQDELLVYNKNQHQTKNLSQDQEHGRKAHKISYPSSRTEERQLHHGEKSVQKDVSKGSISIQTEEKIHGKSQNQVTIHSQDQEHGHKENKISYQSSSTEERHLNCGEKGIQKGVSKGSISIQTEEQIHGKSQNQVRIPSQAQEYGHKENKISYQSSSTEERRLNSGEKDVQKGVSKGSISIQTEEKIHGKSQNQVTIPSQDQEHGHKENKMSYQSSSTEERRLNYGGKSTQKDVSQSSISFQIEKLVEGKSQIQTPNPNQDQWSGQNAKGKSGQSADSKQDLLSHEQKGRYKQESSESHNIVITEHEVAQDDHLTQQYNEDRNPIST
As to the kind of experiment: biolayer interferometry (ForteBio Blitz or Gator). As to the method:
The equilibrium dissociation constant (KD) of the antibody of the present invention binding to human SEMG2 was determined by biolayer interferometry (ForteBio Bltz or Gator instrument). […] 100 μl of SD buffer, antibody and SEMG2 were added to a 96-well black polystyrene half area microplate, respectively. Select the sensor location based on the sample location layout. KD values were analyzed using molecular interaction analysis software. In the experiments of the assays, the affinity constants of murine monoclonal antibodies and human antibodies H88-67, H88-93 and H88-96 are shown in Table 8, and the affinity and dissociation curves of SEMG2 and corresponding proteins are shown in FIG. 25.

For assay [2], the target named is T1, human SEMG2 full-length protein. As to the kind of experiment: ELISA, immobilized antigen SEMG2 (1-582). The text has this: (§1) To clearly distinguish the binding epitopes of blocking antibodies (i.e., antibodies that can inhibit the binding between SEMG2 and CD27) and non-blocking antibodies, a corresponding ELISA analysis method was established. […] Anti-mouse or anti-rabbit secondary antibodies were then used to detect the corresponding bound antibodies.
(In general: ELISA stands for enzyme-linked immunosorbent assay.)

The target of a further assay is T2, AIEKLVEGKSQIQ (not fully specified).
T2 construct: member of the group m41; the text speaks of glycine substitution, the sheet prints alanine
T2 peptide: AIEKLVEGKSQIQ
The assay can be described thus: ELISA, immobilized peptide AIEKLVEGKSQIQ
The text has this:
(§2) FIG. 20 depicts the value detected by ELISA, i.e., OD₄₅₀ absorbance. […] This experiment is used to determine the precise amino acid epitopes that different monoclonal antibodies bind to, and the relative importance of each amino acid to the binding antibody.

A further assay concerns the target T3, QAEKLVEGKSQIQ (not fully specified).
T3 construct: member of the group m41; the text speaks of glycine substitution, the sheet prints alanine
T3 peptide: QAEKLVEGKSQIQ
The assay can be described thus: ELISA, immobilized peptide QAEKLVEGKSQIQ
Text: as §2

The target of a further assay is T4, QIAKLVEGKSQIQ (not fully specified).
T4 construct: member of the group m41; the text speaks of glycine substitution, the sheet prints alanine
T4 peptide: QIAKLVEGKSQIQ
As to the kind of experiment: ELISA, immobilized peptide QIAKLVEGKSQIQ

For the next assay, the target named is T5, QIEALVEGKSQIQ (not fully specified).
T5 construct: member of the group m41; the text speaks of glycine substitution, the sheet prints alanine
T5 peptide: QIEALVEGKSQIQ
As to the kind of experiment: ELISA, immobilized peptide QIEALVEGKSQIQ
Text: as §2

For another assay, the target named is T6, QIEKAVEGKSQIQ (not fully specified).
T6 construct: alanine at this position
T6 peptide: QIEKAVEGKSQIQ
The assay can be described thus: ELISA, immobilized peptide QIEKAVEGKSQIQ
Text: as §2

A further assay has as its target T7, QIEKLAEGKSQIQ (not fully specified).
T7 construct: member of the group m41; the text speaks of glycine substitution, the sheet prints alanine
T7 peptide: QIEKLAEGKSQIQ
As to the kind of experiment: ELISA, immobilized peptide QIEKLAEGKSQIQ
Text: as §2

The target in the next assay is T8, QIEKLVAGKSQIQ (not fully specified).
T8 construct: member of the group m41; the text speaks of glycine substitution, the sheet prints alanine
T8 peptide: QIEKLVAGKSQIQ
The assay can be described thus: ELISA, immobilized peptide QIEKLVAGKSQIQ
Text: as §2
To further precisely define the exact epitopes (specific to the level of single amino acid) to which blocking antibodies MM02, MM05, MM07, MM08, MM13, MM14 bind, corresponding ELISA analysis method was established. […] Anti-mouse or anti-rabbit secondary antibodies were then used to detect the corresponding bound antibodies.

For a further assay, the target named is T9, QIEKLVEAKSQIQ
T9 construct: member of the group m41; position 504 is glycine in SEMG2 and the sheet prints alanine there
T9 peptide: QIEKLVEAKSQIQ
The assay can be described thus: ELISA, immobilized peptide QIEKLVEAKSQIQ
Text: as §2

A further assay has as its target T10, QIEKLVEGASQIQ (not fully specified).
T10 construct: member of the group m41; the text speaks of glycine substitution, the sheet prints alanine
T10 peptide: QIEKLVEGASQIQ
The assay can be described thus: ELISA, immobilized peptide QIEKLVEGASQIQ
Text: as §2

Another assay concerns the target T11, QIEKLVEGKAQIQ (not fully specified).
T11 construct: alanine at this position
T11 peptide: QIEKLVEGKAQIQ
As to the kind of experiment: ELISA, immobilized peptide QIEKLVEGKAQIQ
Text: as §2

The next assay deals with T12, QIEKLVEGKSAIQ (not fully specified).
T12 construct: alanine at this position
T12 peptide: QIEKLVEGKSAIQ
The assay can be described thus: ELISA, immobilized peptide QIEKLVEGKSAIQ
Text: as §2

The next assay has as its target T13, QIEKLVEGKSQAQ (not fully specified).
T13 construct: member of the group m41; the text speaks of glycine substitution, the sheet prints alanine
T13 peptide: QIEKLVEGKSQAQ
The assay can be described thus: ELISA, immobilized peptide QIEKLVEGKSQAQ
Text: as §2

In a further assay the target is T14, QIEKLVEGKSQIA (not fully specified).
T14 construct: alanine at this position
T14 peptide: QIEKLVEGKSQIA
The assay can be described thus: ELISA, immobilized peptide QIEKLVEGKSQIA
Text: as §2

For assay [3], the target named is T15, SEMG2(497-509) polypeptide QIEKLVEGKSQIQ (human).
T15 peptide: QIEKLVEGKSQIQ
The assay can be described thus: ELISA, immobilized peptide QIEKLVEGKSQIQ
Text: as §2

The next assay concerns the target T16, SEMG2(354-403) fragment (human).
T16 peptide: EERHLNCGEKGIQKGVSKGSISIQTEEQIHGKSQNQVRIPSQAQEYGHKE
The assay can be described thus: ELISA, immobilized antigen SEMG2 (354-403).
Text: as §1

A further assay has as its target T17, SEMG2(442-453) fragment (human).
T17 peptide: IHGKSQNQVTIP
As to the kind of experiment: ELISA, immobilized antigen SEMG2 (442-453).
Text: as §1

Assay [4] addresses T15, SEMG2(497-509) polypeptide QIEKLVEGKSQIQ
The assay can be described thus: ELISA, immobilized antigen SEMG2 (497-509).
Text: as §1

The target of a further assay is T18, SEMG2(563-574) fragment (human).
T18 peptide: VAQDDHLTQQYN
The assay can be described thus: ELISA, immobilized antigen SEMG2 (563-574).
Text: as §1

For assay [5], the target named is T1, human SEMG2 full-length protein. As to the kind of experiment: ELISA, plate coated with SEMG2 protein, anti-mouse secondary antibody; the EC50 table prints no unit, the axis is log (antibody concentration, nM).
Assay [6] has the same target. The assay can be described thus: ELISA (FIG. 21B-D).
Assay [7] concerns the target T19, BSA-conjugated human SEMG2 (497-509) polypeptide (human, also: coupled to BSA, site not given here).
T19 peptide: QIEKLVEGKSQIQ
The assay can be described thus: ELISA (FIG. 21B-D).

For assay [8], the target named is T1, human SEMG2 full-length protein. As to the kind of experiment: ELISA on SEMG2; the EC50 table prints no unit, the axis is log (antibody concentration, nM).
The target of assay [9] is T19, BSA-conjugated human SEMG2 (497-509) …. The assay can be described thus: ELISA on BSA-S2 (497-509); curve without upper plateau; the EC50 table prints no unit, the axis is log (antibody concentration, nM).

Substitutions are numbered along the chain they refer to. No end group written: not given here.

B1: MM13 (antibody, V domains shown)
VH: EVQLQQSGAELVRSGASVKLSCTASGFNIKDYYMHWMKQRPEQGLEWIGWIDPENGDNEYAPKFQGKATMTADTSSNTAYLQLSSLTSEDTAVYYCNVGGAHYWGQGTTLTVSS
VL: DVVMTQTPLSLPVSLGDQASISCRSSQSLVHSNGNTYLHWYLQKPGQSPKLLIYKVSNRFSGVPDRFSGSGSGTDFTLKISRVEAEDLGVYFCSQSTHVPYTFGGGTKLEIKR
Regarding B1, in [1], the dissociation constant (Kd) (as a rule, the equilibrium constant for the complex coming apart) came out at 0.693 nM. The A450 absorbance in assay [2] was 1.13; with SEMG2(354-403) fragment, 0.001; with SEMG2(442-453) fragment, 0.008; in [4] it was 1.14; with SEMG2(563-574) fragment, 0.01. The OD450 absorbance is 0.48 in the assay with AIEKLVEGKSQIQ; 0.467 in the assay with QAEKLVEGKSQIQ; 0.67 with QIAKLVEGKSQIQ; 0.712 with QIEALVEGKSQIQ; 0.049 in the assay with QIEKAVEGKSQIQ; 0.658 in the assay with QIEKLAEGKSQIQ. In addition, the OD450 absorbance was found to be 0.738 with QIEKLVAGKSQIQ; 0.842 with QIEKLVEAKSQIQ; 0.818 in the assay with QIEKLVEGASQIQ; 0.211 with QIEKLVEGKAQIQ; 1.19 with QIEKLVEGKSAIQ; 0.699 with QIEKLVEGKSQAQ. The OD450 absorbance stood at 1.25 with QIEKLVEGKSQIA and 1.23 in [3]. The binding result with SEMG2(354-403) fragment, in the assay with SEMG2(442-453) fragment and with SEMG2(563-574) fragment was “no binding” throughout. In addition, in [5], the response was half-maximal at 0.382 nM (EC50).

B2: 67-3-67-6 (antibody, V domains shown)
VH: QVQLLESGGGVVQPGRSLRLSCAASGFTFSSYAMHWVRQASGKGLEWVAVISYDGSNKYYADSVKGRFTISRDNSKNTLYLQMNSLRAEDTAVYYCARMDNHGSPDYWGQGTLVTVSS
VL: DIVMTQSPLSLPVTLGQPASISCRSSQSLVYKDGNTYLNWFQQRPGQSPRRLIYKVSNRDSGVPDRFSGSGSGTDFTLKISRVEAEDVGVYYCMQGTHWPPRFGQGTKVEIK
Take B2: the “fold higher affinity than the parent antibody (H88-67)” value in assay [6] and in [7] was over 10 fold in each case. For the same molecule, the EC50 (in general, the concentration that produces a half-maximal response) came out at 0.313 nM in [8] and 12.6 nM in [9].

B3: 67-6-67-6 (antibody, V domains shown)
VH: B2 VH with N101G
VL: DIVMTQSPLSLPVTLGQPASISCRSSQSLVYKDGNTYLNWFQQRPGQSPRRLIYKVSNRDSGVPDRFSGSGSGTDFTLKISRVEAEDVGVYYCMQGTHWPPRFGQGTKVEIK
In the case of B3, the “fold higher affinity than the parent antibody (H88-67)” value in assay [6] and in [7] was over 10 fold in each case. The figures for the 50% effective concentration (EC50) in [8] and in assay [9] were 0.619 nM and 38.5 nM, respectively.

B4: MM14 (antibody, IgG2b, V domains shown)
VH: QVQLKESGPGLVAPSQSLSITCTVSGFSLTSYAVSWVRQPPGKGLEWLGIIWGDGSTNYHSALISRLSISKDNSKSQVFLKLNSLQTDDTATYYCAKQERFSDGYYDGFAYWGQGTLVTVSA
VL: QIVLTQSPAIMSASPGEKVTITCSASSSVSYMHWFQQKPGTSPKLWIYSTSNLASGVPARFSGSGSGTSYSLTISRMEAEDAATYYCQQRSSYPFTFGSGTKLEIKR
In turn, B4 returned a Kd in [1] of 1.44 nM. In addition, the A450 absorbance was determined as 1.12 in assay [2], 0.003 with SEMG2(354-403) fragment, 0.007 with SEMG2(442-453) fragment and 1.11 in assay [4]. Besides, the OD450 absorbance in the assay with AIEKLVEGKSQIQ was 0.813; with QAEKLVEGKSQIQ, 0.54; with QIAKLVEGKSQIQ it was 0.776; in the assay with QIEALVEGKSQIQ it was 0.777; with QIEKAVEGKSQIQ, 0.161; with QIEKLAEGKSQIQ, 0.804. Further, the OD450 absorbance was determined as 0.766 with QIEKLVAGKSQIQ; 0.47 with QIEKLVEAKSQIQ; 0.621 with QIEKLVEGASQIQ; 0.022 with QIEKLVEGKAQIQ; 1.18 with QIEKLVEGKSAIQ; 0.588 in the assay with QIEKLVEGKSQAQ. The OD450 absorbance in the assay with QIEKLVEGKSQIA is 1.23; in assay [3], 1.17. Also, the binding result in the assay with SEMG2(354-403) fragment, with SEMG2(442-453) fragment and with SEMG2(563-574) fragment was “no binding” throughout. In assay [5], this molecule yielded an EC50 of 0.507 nM.
